Measurements from patent US12624396B2, “Methods for alleviating facioscapulohumeral dystrophy (FSHD) by an antisense nucleic acid molecule inhibiting the expression of double homeobox 4 (DUX4)” (Fred Hutchinson Cancer Center, priority 2010, dated 2026).
“Also recorded” adds a separate entry of the source.

What was measured:
[1] = test system: DUX4 core binding motif oligos (CSF1R, TRIM48); assay: Electromobility shift assay with in vitro translated protein; set-up: species or system human; conditions: radiolabeled CSF1R and TRIM48 oligos, FIG. 15D
Procedure: EMSA was performed with ^32P-labeled 31-bp oligonucleotides from endogenous genomic sequences containing the putative DUX4 binding site as probes (sequences below; only forward shown). Radiolabeled probes were incubated with in vitro translated protein generated from pCS2-DUX4-fl or pCS2-DUX4-s^2 vectors using the TNT SP6 Coupled Wheat Germ Extract System (Promega) according to manufacturer's instructions. To obtain supershift of protein-DNA complexes, 0.1 μg of E14-3 anti-DUX4 rabbit monoclonal antibody was added to the mixtures. For competition experiments, excess unlabeled probes of either wild-type or mutant sequences were included in the binding reaction. The gels were prepared and run as previously described (Knoepfler et al., Nucleic Acids Res 27:3752-3761 (1999)).
Supershift with DUX4 antibody E14-3 confirmed the specificity of binding. […] (d) DUX4-s also binds the same core motifs; left, CSF1R; right, TRIM48. Supershift with anti-DUX4 N-terminus antibody E14-3 confirmed specificity of binding.

[2] = test system: DUX4 binding sites from TRIM48 and ZSCAN4; assay: Luciferase assay, pGL3-promoter reporter with TRIM48 or ZSCAN4 DUX4 binding sites in RD cells; format: cell-based, human; conditions: RD cells co-transfected with DUX4-s alone; FIG. 16
Procedure: (§1) Transient DNA transfections of RD cells were performed using SuperFect (Qiagen) according to manufacturer specifications. Briefly, 3×10^5 cells were seeded per 35 mm plate the day prior to transfection. […] Cells were lysed 24 h post-transfection in Passive Lysis Buffer (Promega). Luciferase activities were quantified using reagents from the Dual-Luciferase Reporter Assay System (Promega) following manufacturer's instructions. Light emission was measured using BioTek Synergy2 luminometer. Luciferase data are given as the averages ±SD of at least triplicates.
The 31 bp DUX4 binding site from TRIM48 (SEQ ID NO:96) or ZSCAN4 (SEQ ID NO:97) were inserted into the luciferase reporter construct upstream of the SV40 promoter, as shown in FIG. 16A.
(A) reporter construct structure; Genomic fragments near the TRIM48 (B) and ZSCAN4 genes (C) containing DUX4 binding sites were cloned into pGL3-promoter reporter vector (schematic, top) and transfected into human rhabdomyoscaroma cell line RD. […] TRIM48mut and ZSCAN4mut, mutated binding sites. Luciferase activity was set relative to control.

DUX4-fl = biological target: T1, DUX4-fl (Homo sapiens, UniProt Q9UBX2); assay: Luciferase assay, ZSCAN4 1.9 kb enhancer/promoter reporter, co-transfection of DUX4-fl and DUX4-s; format: cell-based; conditions: equal amounts of DUX4-fl and DUX4-s co-transfected in RD cells; FIG. 17C
T1 construct: expressed in transfected cells; host or cells: human rhabdomyosarcoma cell line RD, transient transfection with pCS2-DUX4-fl
Procedure: as §1
To determine whether DUX4 binding might directly regulate transcription of select genes, we cloned the 1.9 kb enhancer and promoter region of the ZSCAN4 gene that includes four DUX4 binding sites as follows: (DUX4 binding sites are underlined.)
The 1.9kb enhancer and promoter region of the ZCAN4 gene that includes the four DUX4 binding sites from ZCAN4 (SEQ ID NO:100) were inserted upstream of the luciferase reporter construct (pGL3 basic luciferase vector) as shown in FIG. 17A. […] Real-time RT-PCR quantitation is reported relative to internal standard RPL13a. All data represent mean+/−SD from at least triplicates.

[3] = test system: endogenous retroelement MaLR transcripts; assay: MaLR expression analysis after lentiviral transduction of primary human myoblasts; format: cell-based; conditions: lentiviral transduction into primary human myoblasts; real-time RT-PCR relative to RPL13a; FIG. 17E
[4] = test system: DUX4-fl target genes in FSHD muscle cells; assay: Knockdown of DUX4-fl targets in FSHD muscle cells by lentiviral DUX4-s; format: cell-based, human; conditions: FSHD cultured muscle cells transduced with lenti-DUX4-s, 48 hours of differentiation; real-time RT-PCR; FIG. 21
Procedure: Simultaneously, cells were transduced by lentivirus carrying DUX4-s or GFP along with 8 μg/mL polybrene. Cells were washed and changed to plain differentiation media after 24 hours. Cells were harvested for RNA after 48 hours of differentiation.
One microgram of total RNA was reverse transcribed into first strand cDNA in a 20 uL reaction using SuperScript III (Invitrogen) and digested with 1 U of RNase H (Invitrogen) for 20 min at 37° C. cDNA was diluted and used for quantitative PCR with iTaq SYBR Green supermix with ROX (Bio-Rad). The relative expression levels of target genes were normalized to those of ribosomal protein L13A (RPL13A) by 2^ΔCt. Undetermined values were equated to zero. Standard deviations from the mean of the ΔCt values were calculated from triplicates. PCR primers used for detecting the transcripts of the selected genes are listed in Supplementary methods.
Real-time RT-PCR quantitation of three DUX4 target genes, (A) PRAMEF1, (B) RFPL2 and (C) MBD3L2 in FSHD cultured muscle cells transduced with lenti-GFP or lenti-DUX4-s or untransduced. Abundance of targets was calculated relative to internal standard RPL13a and then set as percentages relative to the untransduced condition. Values represent mean+/−SEM from three independent experiments.

[5] = test system: control human muscle cells; assay: Expression of DUX4-s in control human muscle cells, apoptosis/toxicity; format: cell-based; conditions: 48 hrs, data not shown
Description: Both the mRNA analysis and the immunodetection indicate that approximately 0.1% of FSHD muscle nuclei express DUX4 mRNA and protein. This could represent transient bursts of expression or stochastic activation of expression that leads to cell death, or both. […] When DUX4 is expressed in control human muscle cells by lenti-viral delivery, the DUX4 protein is distributed relatively homogeneously during the first 24 hrs and then aggregates in nuclear foci at 48 hrs when the cells are undergoing apoptosis (data not shown). These DUX4 nuclear foci associated with apoptosis are present in the nuclei of FSHD muscle cultures.

[6] = test system: control human muscle cells; conditions: cultured human skeletal muscle cells; Geng et al. 2011; cited from earlier work

T1 sequence (Q9UBX2 whole entry): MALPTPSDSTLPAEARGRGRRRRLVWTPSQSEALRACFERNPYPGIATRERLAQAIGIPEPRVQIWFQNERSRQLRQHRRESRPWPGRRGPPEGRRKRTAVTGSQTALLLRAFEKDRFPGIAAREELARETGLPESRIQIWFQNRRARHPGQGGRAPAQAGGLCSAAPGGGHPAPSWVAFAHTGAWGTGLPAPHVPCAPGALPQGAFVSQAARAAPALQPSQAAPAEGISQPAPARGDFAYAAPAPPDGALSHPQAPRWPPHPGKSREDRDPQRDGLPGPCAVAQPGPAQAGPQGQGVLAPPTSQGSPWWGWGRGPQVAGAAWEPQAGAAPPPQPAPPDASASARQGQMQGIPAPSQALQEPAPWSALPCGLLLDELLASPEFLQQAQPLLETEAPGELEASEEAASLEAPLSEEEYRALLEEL

B1: DUX4-s: short splice form of DUX4 (SEQ ID NO:68) keeping the N-terminal double-homeobox domains, lacking the C-terminal domain; expressed from vector (protein, listed as Homo sapiens)
chain: MALPTPSDSTLPAEARGRGRRRRLVWTPSQSEALRACFERNPYPGIATRERLAQAIGIPEPRVQIWFQNERSRQLRQHRRESRPWPGRRGPPEGRRKRTAVTGSQTALLLRAFEKDRFPGIAAREELARETGLPESRIQIWFQNRRARHPGQGGRAPAQV
binding to DUX4 core binding site (EMSA) [1]: specifically binds the same core binding site as DUX4-fl
activation of luciferase expression [2]: did not activate expression
effect on DUX4-fl induced luciferase activity (DUX4-fl): diminishes luciferase activity; also recorded: interfered with the activity of DUX4-fl
upregulation of endogenous MaLR transcripts [3]: No upregulation
endogenous expression of DUX4-fl target genes (PRAMEF1, RFPL2, MBD3L2) [4]: inhibited the endogenous expression of the target genes; also recorded: blocks expression of DUX4-fl target genes
induction of apoptosis [5]: does not induce apoptosis
toxicity of forced over-expression [6]: not toxic
